Experimental data taken from doi:10.1101/2024.02.15.580496 (bioRxiv, 2024).

Target: the molecule itself
Assay: SEC-MALS

B1: Lip-VIN3VEL (residues 500-603), wild type (domain or fragment)
chain: GKQGGNKRFKSRTVSLNEKPEINNAANGVGDKDLGHIVKTIRCLEEEGHIDKSFRERFLTWYSLRATHREVRVVKIFVETFMEDLSSLGQQLVDTFSESILSKR
B1: binds.

B2: Lip-VIN3VEL (residues 500-603) I575T (domain or fragment)
chain: GKQGGNKRFKSRTVSLNEKPEINNAANGVGDKDLGHIVKTIRCLEEEGHIDKSFRERFLTWYSLRATHREVRVVKTFVETFMEDLSSLGQQLVDTFSESILSKR
B2: binds.
